How the values were obtained:
HeLa Kyoto [1] = experiment: solubility in G1/S (NP-40 vs SDS abundance) (log2 ratio); higher = more soluble; details: cell cycle stage: G1/S
HeLa Kyoto [2] = experiment: thermal stability score vs G1/S (z-score of summed log2 fold changes over temperatures); higher = more thermally stable than in G1/S
HeLa Kyoto [3] = experiment: solubility change mitosis vs G1/S (difference of NP-40 vs SDS log2 ratios) (log2 ratio difference); higher = more soluble in mitosis
HeLa Kyoto [4] = experiment: melting temperature (median over replicates), in situ; higher = more thermally stable
[5] = cell cycle stage: early G1 (4.5 h after nocodazole release)
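Throughout, for melting temperature (median over replicates), in situ: HeLa Kyoto cells synchronized by double thymidine or nocodazole block, proteins quantified by TMT10plex mass spectrometry, three independent biological replicates.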
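Throughout, for solubility change mitosis vs G1/S (difference of NP-40 vs SDS log2 ratios): synchronized HeLa Kyoto cells (double thymidine block for G1/S, nocodazole release for mitosis), protein amounts in NP-40 versus SDS lysates quantified by mass spectrometry, three biological replicates.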
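Throughout, for solubility in G1/S (NP-40 vs SDS abundance): HeLa Kyoto cells arrested at G1/S by double thymidine block, proteins quantified by TMT10plex mass spectrometry in mild NP-40 versus SDS extracts, three biological replicates.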
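Throughout, for thermal stability score vs G1/S (z-score of summed log2 fold changes over temperatures): synchronized HeLa Kyoto cells, proteins quantified by TMT10plex mass spectrometry, three biological replicates, mitosis taken 0.5 h after nocodazole release, G1/S directly after double thymidine block.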

Row | Sequence | solubility in G1/S (log2) (HeLa Kyoto [1]) | thermal stability score (HeLa Kyoto [2]; [5]) | thermal stability score (HeLa Kyoto [2]; cell cycle stage: mitosis) | solubility change mitosis (log2) (HeLa Kyoto [3]) | melting temperature (HeLa Kyoto [4]; cell cycle stage: G1/S) [°C] | melting temperature (HeLa Kyoto [4]; cell cycle stage: mitosis) [°C]
1 | MPVQLSEHPEWNESMHSLRISVGGLPVLASMTKAADPRFRPRWKVILTFFVGAAILWLLCSHRPAPGRPPTHNAHNWRLGQAPANWYNDTYPLSPPQRTPAGIRYRIAVIADLDTESRAQEENTWFSYLKKGYLTLSDSGDKVAVEWDKDHGVLESHLAEKGRGMELSDLIVFNGKLYSVDDRTGVVYQIEGSKAVPWVILSDGDGTVEKGFKAEWLAVKDERLYVGGLGKEWTTTTGDVVNENPEWVKVVGYKGSVDHENWVSNYNALRAAAGIQPPGYLIHESACWSDTLQRWFFLPRRASQERYSEKDDERKGANLLLSASPDFGDIAVSHVGAVVPTHGFSSFKFIPNTDDQIIVALKSEEDSGRVASYIMAFTLDGRFLLPETKIGSVKYEGIEFI [CANT1] | 0.0305 | -0.646 | -1.1 | -0.137 | 55.2 | 54.6
2 | MPYEIKKVFASLPQVERGVSKIIGGDPKGNNFLYTNGKCVILRNIDNPALADIYTEHAHQVVVAKYAPSGFYIASGDVSGKLRIWDTTQKEHLLKYEYQPFAGKIKDIAWTEDSKRIAVVGEGREKFGAVFLWDSGSSVGEITGHNKVINSVDIKQSRPYRLATGSDDNCAAFFEGPPFKFKFTIGDHSRFVNCVRFSPDGNRFATASADGQIYIYDGKTGEKVCALGGSKAHDGGIYAISWSPDSTHLLSASGDKTSKIWDVSVNSVVSTFPMGSTVLDQQLGCLWQKDHLLSVSLSGYINYLDRNNPSKPLHVIKGHSKSIQCLTVHKNGGKSYIYSGSHDGHINYWDSETGENDSFAGKGHTNQVSRMTVDESGQLISCSMDDTVRYTSLMLRDYSGQGVVKLDVQPKCVAVGPGGYAVVVCIGQIVLLKDQRKCFSIDNPGYEPEVVAVHPGGDTVAIGGVDGNVRLYSILGTTLKDEGKLLEAKGPVTDVAYSHDGAFLAVCDASKVVTVFSVADGYSENNVFYGHHAKIVCLAWSPDNEHFASGGMDMMVYVWTLSDPETRVKIQDAHRLHHVSSLAWLDEHTLVTTSHDASVKEWTITY [WDR1] | -0.153 | -0.713 | -2.84 | -0.128 | 53.7 | 52.3
3 | MPYLGSEDVVKELKKALCNPHIQADRLRYRNVIQRVIRYMTQGLDMSGVFMEMVKASATVDIVQKKLVYLYMCTYAPLKPDLALLAINTLCKDCSDPNPMVRGLALRSMCSLRMPGVQEYIQQPILNGLRDKASYVRRVAVLGCAKMHNLHGDSEVDGALVNELYSLLRDQDPIVVVNCLRSLEEILKQEGGVVINKPIAHHLLNRMSKLDQWGQAEVLNFLLRYQPRSEEELFDILNLLDSFLKSSSPGVVMGATKLFLILAKMFPHVQTDVLVRVKGPLLAACSSESRELCFVALCHVRQILHSLPGHFSSHYKKFFCSYSEPHYIKLQKVEVLCELVNDENVQQVLEELRGYCTDVSADFAQAAIFAIGGIARTYTDQCVQILTELLGLRQEHITTVVVQTFRDLVWLCPQCTEAVCQALPGCEENIQDSEGKQALIWLLGVHGERIPNAPYVLEDFVENVKSETFPAVKMELLTALLRLFLSRPAECQDMLGRLLYYCIEEEKDMAVRDRGLFYYRLLLVGIDEVKRILCSPKSDPTLGLLEDPAERPVNSWASDFNTLVPVYGKAHWATISKCQGAERCDPELPKTSSFAASGPLIPEENKERVQELPDSGALMLVPNRQLTADYFEKTWLSLKVAHQQVLPWRGEFHPDTLQMALQVVNIQTIAMSRAGSRPWKAYLSAQDDTGCLFLTELLLEPGNSEMQISVKQNEARTETLNSFISVLETVIGTIEEIKS [AP4B1] | -0.123 | -0.012 | 0.298 | -0.136 | 49.3 | 49.7
4 | MQDDSIEASTSISQLLRESYLAETRHRGNNERSRAEPSSNPCHFGSPSGAAEGGGGQDDLPDLSAFLSQEELDESVNLARLAINYDPLEKADETQARKRLSPDQMKHSPNLSFEPNFCQDNPRSPTSSKESPQEAKRPQYCSETQSKKVFLNKAADFIEELSSLFKSHSSKRIRPRACKNHKSKLESQNKVMQENSSSFSDLSERRERSSVPIPIPADTRDNEVNHALEQQEAKRREAEQAASEAAGGDTTPGSSPSSLYYEEPLGQPPRFTQKLRSREVPEGTRVQLDCIVVGIPPPQVRWYCEGKELENSPDIHIVQAGNLHSLTIAEAFEEDTGRYSCFASNIYGTDSTSAEIYIEGVSSSDSEGDPNKEEMNRIQKPNEVSSPPTTSAVIPPAVPQAQHLVAQPRVATIQQCQSPTNYLQGLDGKPIIAAPVFTKMLQNLSASEGQLVVFECRVKGAPSPKVEWYREGTLIEDSPDFRILQKKPRSMAEPEEICTLVIAEVFAEDSGCFTCTASNKYGTVSSIAQLHVRGNEDLSNNGSLHSANSTTNLAAIEPQPSPPHSEPPSVEQPPKPKLEGVLVNHNEPRSSSRIGLRVHFNLPEDDKGSEASSEAGVVTTRQTRPDSFQERFNGQATKTPEPSSPVKEPPPVLAKPKLDSTQLQQLHNQVLLEQHQLQNPPPSSPKEFPFSMTVLNSNAPPAVTTSSKQVKAPSSQTFSLARPKYFFPSTNTTAATVAPSSSPVFTLSSTPQTIQRTVSKESLLVSHPSVQTKSPGGLSIQNEPLPPGPTEPTPPPFTFSIPSGNQFQPRCVSPIPVSPTSRIQNPVAFLSSVLPSLPAIPPTNAMGLPRSAPSMPSQGLAKKNTKSPQPVNDDNIRETKNAVIRDLGKKITFSDVRPNQQEYKISSFEQRLMNEIEFRLERTPVDESDDEIQHDEIPTGKCIAPIFDKRLKHFRVTEGSPVTFTCKIVGIPVPKVYWFKDGKQISKRNEHCKMRREGDGTCSLHIESTTSDDDGNYTIMAANPQGRISCSGHLMVQSLPIRSRLTSAGQSHRGRSRVQERDKEPLQERFFRPHFLQAPGDMVAHEGRLCRLDCKVSGLPPPELTWLLNGQPVLPDASHKMLVRETGVHSLLIDPLTQRDAGTYKCIATNKTGQNSFSLELSVVAKEVKKAPVILEKLQNCGVPEGHPVRLECRVIGMPPPVFYWKKDNETIPCTRERISMHQDTTGYACLLIQPAKKSDAGWYTLSAKNEAGIVSCTARLDIYAQWHHQIPPPMSVRPSGSRYGSLTSKGLDIFSAFSSMESTMVYSCSSRSVVESDEL [MYPN] | 0.0329 | -0.0918 | 3.44 | -0.108 | 47.6 | 48.9
